# Assay results from patent US7662384B2, “Use of anti-α5β1 antibodies to inhibit cancer cell proliferation” (Facet Biotech Corporation, priority 2004, dated 2010).
# Tests used:
# [1] = system: refractory solid tumors; test: Phase I dose-escalation study: tumor response (RECIST); type: in vivo, human; design: key to Response outcome: Complete Response (CR): Disappearance of all target lesions confirmed by repeat imaging 25 to 28 days after CR first documented.; Partial Response (PR): At least a 30% decrease in the sum of LD of target lesions, taking as reference the baseline sum LD; Stable Disease (SD): Neither sufficient shrinkage to qualify for PR nor sufficient increase to qualify for PD, taking as references the smallest sum LD.; Progressive Disease (PD): At least a 20% increase in the sum of LD of target lesions, taking as reference the smallest sum LD recorded since treatment started, or the appearance of one or more new lesions
# Experimental: A two-part Phase I open-label study was carried to determine the effects of treatment with up to 6 dose levels, from 0.5 mg/kg to 15.0 mg/kg of M200 (volociximab) in 21 human patients with a variety of refractory solid tumor types. The total duration of treatment for the first part was 6 weeks with physical assessments through 45 days after the last dose.
# The dosing levels and schedule used in the study were as follows. M200 was administered to the 21 patients on days 1, 15, 22, 29, and 36. The dosing levels and numbers of patients per level were: 0.5 mg/kg (1 patient), 1.0 mg/kg (2 patient), 2.5 mg/kg (3 patients), 5.0 mg/kg (3 patients), 10.0 mg/kg (6 patients) and 15 mg/kg (6 patients). The dose was administered as an intravenous infusion over 1 hour. The first and second doses were separated by a two week period to allow sampling for single-dose pharmacokinetic data. The real-time PK measurements performed following the first dose were used to predict each patient's peak serum concentration following the fifth dose. If the predicted peak serum concentration following the fifth dose was <750 μg/mL, the patient received all 5 doses of M200. The remaining 3 doses were given weekly and followed by a 45-day evaluation period.
# Patient evaluations during the study included the following: • a. Screening (within 14 days of study entry) of: medical history and physical examination, ECOG performance status, routine chemistry panel, complete blood count (CBC) with differential and platelets, sensitive C-reactive protein (CRP), urinalysis with microscopic analysis (UA/micro), electrocardiogram (ECG), chest radiograph (CXR), disease-directed body CT or MRI, urine pregnancy test within 48 hours prior to dosing, and coagulation studies (prothrombin [PT] and partial thromboplastin time [PTT]), anti-M200 antibodies (i.e., to detect cross-reactive HAMA or HACA) for patients who previously received murine or chimeric antibodies, head CT for patients with tumors that commonly metastasize to brain or CNS, and, in some patients, a biopsy to evaluate tumor vessel vascularity. • b. On-study laboratory evaluations: routine chemistry panel, urate, serum amylase, CBC with differential and platelets, UA/micro. • c. Routine disease-directed radiographic imaging (e.g., CT scanning) before and after treatment with M200 was used to evaluate tumor response using uni-dimensional, RECIST criteria. Target lesions were selected on the basis of their size (lesions with the longest diameter (LD)) and their suitability for accurate repetitive measurements (either by imaging techniques or clinically). A sum of the LD for all target lesions was calculated and reported as the baseline sum LD. The baseline sum LD was used as reference by which to characterize the objective tumor response. The following response criteria for the target lesions was used to assess the best overall response. • Complete Response (CR): Disappearance of all target lesions confirmed by repeat imaging 25 to 28 days after CR first documented. • Partial Response (PR): At least a 30% decrease in the sum of LD of target lesions, taking as reference the baseline sum LD, confirmed by repeat imaging 25 to 28 days after PR first documented. • Stable Disease (SD): Neither sufficient shrinkage to qualify for PR nor sufficient increase to qualify for PD, taking as references the smallest sum LD. • Progressive Disease (PD): At least a 20% increase in the sum of LD of target lesions, taking as reference the smallest sum LD recorded since treatment started, or the appearance of one or more new lesions. • d. Blood drawn for serum PK measurements, immunogenicity assays (anti-M200 antibodies), vascular growth factors, and measurement of bound and unbound α5β1 on peripheral blood monocytes. • e. A 3-mm punch biopsy of superficial tumor metastasis was obtained and frozen after the last treatment with M200 from patients who consented (not required for enrollment) to the procedure. […]
# [2] = system: VX2 tumors; details: rabbit, in vivo, 10 mg/kg
# Experimental: Rabbits were inoculated on Day 0 with a cell suspension (100 μl) subcutaneously (left hind limb), and intramuscularly at a depth of about 3 mm (right hind limb). Intramuscular inoculation was carried out as follows. With the rabbit under ketamine/isoflurane anesthesia, a ˜2 cm incision was made parallel to the right femur with a scalpel on the anterior, lateral aspect of the femoral axis, ˜⅓ of the total femur length distally from the femoral-pelvic (hip) joint. Muscle groups were separated to create a ˜0.5 cm deep cavity. One VX2 tumor fragment from a donor animal was placed into the cavity. Skin was securely closed with sterile surgical staples or sutures and a topical antibiotic was applied to the wound site.
# M200 was administered intravenously at 10 mg/kg dosage to a tumor-bearing rabbit and the tumor was excised 1 hour later. Tumor sections were stained with either: (i) an anti-human secondary antibody specific for tumor bound M200; (ii) IIA1 followed by an anti-mouse secondary to detect total α5β1; or (iii) a control IgG and anti-mouse secondary.
molecule,measurement,setting,value
"M200: chimeric IgG4 anti-α5β1 antibody derived from IIA1; generic name volociximab (antibody, V domains shown, chimeric antibody, chimeric IgG4 anti-α5β1 antibody derived from IIA1; generic name volociximab) VH: MAVLGLLLCLVTFPSCVLSQVQLKESGPGLVAPSQSLSITCTISGFSLTDYGVHWVRQPPGKGLEWLVVIWSDGSSTYNSALKSRMTIRKDNSKSQVFLIMNSLQTDDSAMYYCARHGTYYGMTTTGDALDYWGQGTSVTVSS VL: MDFQVQIFSFLLISASVIMSRGQIVLTQSPAIMSASLGERVTMTCTASSSVSSNYLHWYQQKPGSAPNLWIYSTSNLASGVPARFSGSGSGTSYSLTISSMEAEDAATYYCHQYLRSPPTFGGGTKLEIKDMSVDMSV",Response outcome,"[1]; 0.5 mg/kg, CRC patient","(PD) (Progressive Disease (PD): At least a 20% increase in the sum of LD of target lesions, taking as reference the smallest sum LD recorded since treatment started, or the appearance of one or more new lesions.)"
same,Response outcome,"[1]; 1.0 mg/kg, HCC patient",(SD)
same,Response outcome,"[1]; 1.0 mg/kg, PC patient",(SD)
same,Response outcome,"[1]; 2.5 mg/kg, CRC patient","(PD) (Progressive Disease (PD): At least a 20% increase in the sum of LD of target lesions, taking as reference the smallest sum LD recorded since treatment started, or the appearance of one or more new lesions.)"
same,Response outcome,"[1]; 2.5 mg/kg, MEL Ocular patient","(PD) (Progressive Disease (PD): At least a 20% increase in the sum of LD of target lesions, taking as reference the smallest sum LD recorded since treatment started, or the appearance of one or more new lesions.)"
same,Response outcome,"[1]; 2.5 mg/kg, NSCLC patient",(SD)
same,Response outcome,"[1]; 5.0 mg/kg, EC patient","(PD) (Progressive Disease (PD): At least a 20% increase in the sum of LD of target lesions, taking as reference the smallest sum LD recorded since treatment started, or the appearance of one or more new lesions.)"
same,Response outcome,"[1]; 5.0 mg/kg, HCC patient",(SD)
same,Response outcome,"[1]; 5.0 mg/kg, THY patient","(PD) (Progressive Disease (PD): At least a 20% increase in the sum of LD of target lesions, taking as reference the smallest sum LD recorded since treatment started, or the appearance of one or more new lesions.)"
same,Response outcome,"[1]; 10.0 mg/kg, BC patient",(SD)
same,Response outcome,"[1]; 10.0 mg/kg, CRC patient (two patients)",(SD)
same,Response outcome,"[1]; 10.0 mg/kg, MEL patient","(PD) (Progressive Disease (PD): At least a 20% increase in the sum of LD of target lesions, taking as reference the smallest sum LD recorded since treatment started, or the appearance of one or more new lesions.)"
same,Response outcome,"[1]; 10.0 mg/kg, PARO patient",(SD)
same,Response outcome,"[1]; 10.0 mg/kg, RCC patient",(SD)
same,Response outcome,"[1]; 15.0 mg/kg, EC patient","(PD) (Progressive Disease (PD): At least a 20% increase in the sum of LD of target lesions, taking as reference the smallest sum LD recorded since treatment started, or the appearance of one or more new lesions.)"
same,Response outcome,"[1]; 15.0 mg/kg, PRO patient","(PD) (Progressive Disease (PD): At least a 20% increase in the sum of LD of target lesions, taking as reference the smallest sum LD recorded since treatment started, or the appearance of one or more new lesions.)"
same,overall response outcome: progressive disease (PD),"[1]; 21 treated patients, 0.5-15 mg/kg",10 patients
same,"accessibility of subcutaneous and intramuscular VX2 tumors to antibody, assessed by IHC",[2],accessible to M200
